Experimental data from PMC3861647, “Characterization of Fibrinogen Binding by Glycoproteins Srr1 and Srr2 of Streptococcus agalactiae*” (The Journal of Biological Chemistry, 2013).

Columns and labels:
[1] = molecular target: T1, Srr2-BR (untagged recombinant binding region of Srr2) (Streptococcus agalactiae (strain COH1)); assay: SPR; BIAcore T100; fibrinogen amine-coupled to a CM5 chip; Srr1-BR or Srr2-BR 1.25–160 μM flowed at 10 μl/min; KD from equilibrium responses; conditions: both partners purified
T1 construct: I took it to be this one; also called untagged Srr2-BR; recombinant Srr2; source: E. coli, purified (nickel-nitrilotriacetic acid or anti-FLAG M2-agarose)
T1 sequence (P02671 36-866): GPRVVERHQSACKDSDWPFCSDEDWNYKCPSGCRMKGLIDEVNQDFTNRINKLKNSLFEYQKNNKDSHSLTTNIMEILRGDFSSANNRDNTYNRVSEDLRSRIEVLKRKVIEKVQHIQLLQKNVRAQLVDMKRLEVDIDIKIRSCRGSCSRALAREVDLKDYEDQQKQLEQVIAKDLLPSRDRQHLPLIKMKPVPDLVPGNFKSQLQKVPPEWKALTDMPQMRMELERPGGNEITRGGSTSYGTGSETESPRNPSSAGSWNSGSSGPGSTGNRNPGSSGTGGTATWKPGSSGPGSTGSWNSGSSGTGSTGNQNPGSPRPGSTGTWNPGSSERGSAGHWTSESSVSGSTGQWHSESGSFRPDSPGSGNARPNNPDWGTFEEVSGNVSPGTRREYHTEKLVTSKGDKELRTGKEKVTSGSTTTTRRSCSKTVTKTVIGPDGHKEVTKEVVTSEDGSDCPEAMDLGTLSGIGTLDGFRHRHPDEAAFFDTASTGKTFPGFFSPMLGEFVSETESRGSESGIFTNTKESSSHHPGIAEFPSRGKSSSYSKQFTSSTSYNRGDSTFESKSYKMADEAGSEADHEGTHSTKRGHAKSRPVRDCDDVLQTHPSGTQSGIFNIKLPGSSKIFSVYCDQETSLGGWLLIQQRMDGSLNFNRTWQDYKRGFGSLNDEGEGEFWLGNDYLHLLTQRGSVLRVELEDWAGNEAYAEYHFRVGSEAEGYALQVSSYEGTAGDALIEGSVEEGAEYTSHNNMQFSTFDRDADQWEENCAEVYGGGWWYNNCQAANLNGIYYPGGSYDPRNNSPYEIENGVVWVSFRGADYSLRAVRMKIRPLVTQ

[2] = molecular target: T2, Srr1-BR (untagged recombinant binding region of Srr1) (Streptococcus agalactiae (strain NCTC …)); assay: as above; conditions: both partners purified
T2 construct: I took it to be this one; also called untagged Srr1-BR; recombinant Srr1; source: E. coli, purified (nickel-nitrilotriacetic acid or anti-FLAG M2-agarose)
T2 sequence (P02671 36-866): as above

B1: purified human fibrinogen (complex)
chain 1: ADSGEGDFLAEGGGVRGPRVVERHQSACKDSDWPFCSDEDWNYKCPSGCRMKGLIDEVNQDFTNRINKLKNSLFEYQKNNKDSHSLTTNIMEILRGDFSSANNRDNTYNRVSEDLRSRIEVLKRKVIEKVQHIQLLQKNVRAQLVDMKRLEVDIDIKIRSCRGSCSRALAREVDLKDYEDQQKQLEQVIAKDLLPSRDRQHLPLIKMKPVPDLVPGNFKSQLQKVPPEWKALTDMPQMRMELERPGGNEITRGGSTSYGTGSETESPRNPSSAGSWNSGSSGPGSTGNRNPGSSGTGGTATWKPGSSGPGSTGSWNSGSSGTGSTGNQNPGSPRPGSTGTWNPGSSERGSAGHWTSESSVSGSTGQWHSESGSFRPDSPGSGNARPNNPDWGTFEEVSGNVSPGTRREYHTEKLVTSKGDKELRTGKEKVTSGSTTTTRRSCSKTVTKTVIGPDGHKEVTKEVVTSEDGSDCPEAMDLGTLSGIGTLDGFRHRHPDEAAFFDTASTGKTFPGFFSPMLGEFVSETESRGSESGIFTNTKESSSHHPGIAEFPSRGKSSSYSKQFTSSTSYNRGDSTFESKSYKMADEAGSEADHEGTHSTKRGHAKSRPV
chain 2: QGVNDNEEGFFSARGHRPLDKKREEAPSLRPAPPPISGGGYRARPAKAAATQKKVERKAPDAGGCLHADPDLGVLCPTGCQLQEALLQQERPIRNSVDELNNNVEAVSQTSSSSFQYMYLLKDLWQKRQKQVKDNENVVNEYSSELEKHQLYIDETVNSNIPTNLRVLRSILENLRSKIQKLESDVSAQMEYCRTPCTVSCNIPVVSGKECEEIIRKGGETSEMYLIQPDSSVKPYRVYCDMNTENGGWTVIQNRQDGSVDFGRKWDPYKQGFGNVATNTDGKNYCGLPGEYWLGNDKISQLTRMGPTELLIEMEDWKGDKVKAHYGGFTVQNEANKYQISVNKYRGTAGNALMDGASQLMGENRTMTIHNGMFFSTYDRDNDGWLTSDPRKQCSKEDGGGWWYNRCHAANPNGRYYWGGQYTWDMAKHGTDDGVVWMNWKGSWYSMRKMSMKIRPFFPQQ
chain 3: YVATRDNCCILDERFGSYCPTTCGIADFLSTYQTKVDKDLQSLEDILHQVENKTSEVKQLIKAIQLTYNPDESSKPNMIDAATLKSRKMLEEIMKYEASILTHDSSIRYLQEIYNSNNQKIVNLKEKVAQLEAQCQEPCKDTVQIHDITGKDCQDIANKGAKQSGLYFIKPLKANQQFLVYCEIDGSGNGWTVFQKRLDGSVDFKKNWIQYKEGFGHLSPTGTTEFWLGNEKIHLISTQSAIPYALRVELEDWNGRTSTADYAMFKVGPEADKYRLTYAYFAGGDAGDAFDGFDFGDDPSDKFFTSHNGMQFSTWDNDNDKFEGNCAEQDGSGWWMNKCHAGHLNGVYYQGGTYSKASTPNGYDNGIIWATWKTRWYSMKKTTMKIIPFNRLTIGEGQQHHLGGAKQAGDV
modifications: plasma-derived disulfide-linked hexamer (AαBβγ)2, N-glycosylated; Aα taken as the 610-residue circulating form (paper's Aα(1-610)), γ as the major γA form with the C-terminus printed in the text …
**Q.** B1 was tested. Which Kd [1] did it give?
**A.** Its Kd is 3.7 µM.

**Q.** What about the Kd [2] of the same binder?
**A.** The Kd was 21 µM.
